# From patent publication US20250334594A1 (ELEDON PHARMACEUTICALS, published 2025)
# Experiments:
# [1] = target: recombinant human FcγRI (human) (UniProt P12314); assay: ELISA: antibody coated (2 µg/ml), recombinant human FcγRI titrated, mouse anti-CD64 + HRP anti-mouse IgG, A450
# [2] = target: control protein CTLA4-IgG1 (UniProt P16410 38-161, limits assumed); assay: sandwich ELISA: protein coated (2 µg/ml), huCD40L titrated, biotinylated goat anti-CD40L polyclonal + streptavidin-HRP, A450
# Sequence of control protein CTLA4-IgG1 (P16410 other isoform, or with tags, fused parts or gaps limits assumed): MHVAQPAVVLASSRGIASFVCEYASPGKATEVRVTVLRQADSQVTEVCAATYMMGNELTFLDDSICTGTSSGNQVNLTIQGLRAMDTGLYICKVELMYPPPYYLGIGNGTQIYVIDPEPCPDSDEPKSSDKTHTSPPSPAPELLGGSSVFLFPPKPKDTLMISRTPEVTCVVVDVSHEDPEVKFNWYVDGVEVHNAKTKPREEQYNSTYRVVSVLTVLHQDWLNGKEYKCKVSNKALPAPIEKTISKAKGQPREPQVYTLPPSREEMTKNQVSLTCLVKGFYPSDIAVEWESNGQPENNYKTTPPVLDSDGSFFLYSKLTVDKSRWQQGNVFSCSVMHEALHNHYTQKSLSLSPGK
# Procedure: All washes were performed using 3 washes of 250 μl of PBS. […] The plate was washed and then blocked with 2% bovine serum albumin/PBS for 1 hour at room temperature. The plate was washed and recombinant human CD40L protein (Santa Cruz Biotechnology, Santa Cruz, California, USA) was added to the plate titrated out by 2-fold dilution starting at 2000 ng/ml. After binding and washing, the bound CD40L protein was detected using 100 μl a biotinylated goat anti-human CD40L polyclonal antibody (200 ng/ml) and 100 μl a streptavidin-horseradish peroxidase conjugate at 100 ng/ml. Colorimetric detection was performed with the chromagen TMB (3,3′,5,5′-tetramethylbenzidine) and spectrophotometric analysis of absorption at 450 nm.
# Sequence of recombinant human FcγRI (human) (P12314 16-288 limits assumed): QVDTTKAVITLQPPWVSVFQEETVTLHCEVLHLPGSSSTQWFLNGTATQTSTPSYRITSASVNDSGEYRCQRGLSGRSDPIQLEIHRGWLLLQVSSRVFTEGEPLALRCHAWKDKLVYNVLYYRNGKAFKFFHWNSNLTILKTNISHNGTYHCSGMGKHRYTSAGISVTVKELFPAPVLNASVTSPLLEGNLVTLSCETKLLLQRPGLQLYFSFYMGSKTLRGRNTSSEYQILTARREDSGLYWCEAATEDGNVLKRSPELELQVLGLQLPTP
EC50 (read off the curve) [1],binding result [2],Molecule
0.2 µg/mL,–,anti-CD40L antibody 5c8 (reference antibody)
–,no binding (tested: 2 micrograms/mL),"recombinant human CD40L protein (Santa Cruz Biotechnology) (ligand, UniProt P29965 113-261, looked up, Bought reagent; also called CD154) MQKGDQNPQIAAHVISEASSKTTSVLQWAEKGYYTMSNNLVTLENGKQLTVKRQGLYYIYAQVTFCSNREASSQAPFIASLCLKSPGRFERILLRAANTHSSAKPCGQQSIHLGGVFELQPGASVFVNVTDPSQVSHGTGFTSFGLLKL"
